Results from publication PMC9333989.

B1: mouse CD4, wild type [mouse] / Lck (Src kinase) [mouse (endogenous in 58α−β− T cell hybridoma)] (parent)
chain 1: KTLVLGKEGESAELPCESSQKKITVFTWKFSDQRKILGQHGKGVLIRGGSPSQFDRFDSKKGAWEKGSFPLIINKLKMEDSQTYICELENRKEEVELWVFKVTFSPGTSLLQGQSLTLTLDSNSKVSNPLTECKHKKGKVVSGSKVLSMSNLRVQDSDFWNCTVTLDQKKNWFGMTLSVLGFQSTAITAYKSEGESAEFSFPLNFAEENGWGELMWKAEKDSFFQPWISFSIKNKEVSVQKSTKDLKLQLKETLPLTLKIPQVSLQFAGSGNLTLTLDKGTLHQEVNLVVMKVAQLNNTLTCEVMGPTSPKMRLTLKQENQEARVSEEQKVVQVVAPETGLWQCLLSEGDKVKMDSRIQVLSRGVNQTVFLACVLGGSFGFLGFLGLCILCCVRCRHQQRQAARMSQIKRLLSEKKTCQCPHRMQKSHNLI
chain 2: MGCVCSSNPEDDWMENIDVCENCHYPIVPLDSKISLPIRNGSEVRDPLVTYEGSLPPASPLQDNLVIALHSYEPSHDGDLGFEKGEQLRILEQSGEWWKAQSLTTGQEGFIPFNFVAKANSLEPEPWFFKNLSRKDAERQLLAPGNTHGSFLIRESESTAGSFSLSVRDFDQNQGEVVKHYKIRNLDNGGFYISPRITFPGLHDLVRHYTNASDGLCTKLSRPCQTQKPQKPWWEDEWEVPRETLKLVERLGAGQFGEVWMGYYNGHTKVAVKSLKQGSMSPDAFLAEANLMKQLQHPRLVRLYAVVTQEPIYIITEYMENGSLVDFLKTPSGIKLNVNKLLDMAAQIAEGMAFIEEQNYIHRDLRAANILVSDTLSCKIADFGLARLIEDNEYTAREGAKFPIKWTAPEAINYGTFTIKSDVWSFGILLTEIVTHGRIPYPGMTNPEVIQNLERGYRMVRPDNCPEELYHLMMLCWKERPEDRPTFDYLRSVLDDFFTATEGQYQPQP

Variants of: B1
Experiment: co-IP of Lck with CD4 from sucrose gradient fractions
Settings: with Lck (Src kinase) [mouse (endogenous in 58α−β− T cell hybridoma)], mean ± SEM of three independent experiments, read off a plot
[1] = DRM fractions (center graph), parent: 3.7
[2] = DSM fractions (right graph), parent: 6.9
[3] = DRM fractions (center graph), parent: 2.6
[4] = DSM fractions (right graph), parent: 8.9

Row | Variant | response [1] | response [2] | response [3] | response [4]
1 | chain 1 G377V G380L | 3.5 AUC | 6.4 AUC |  | 
2 | chain 1 S406D L411A L412A S413D |  |  | 0.87 AUC | 6.3 AUC
3 | chain 1 C392S C395S | 2.1 AUC | 8.9 AUC |  | 
4 | chain 1 G377V G380L C392S C395S C418S C420S | 0.85 AUC | 1.2 AUC |  | 
5 | chain 1 S406D S413D |  |  | 1.8 AUC | 8.4 AUC
6 | chain 1 S406A S413A |  |  | 3.2 AUC | 
